Measured values from publication PMC9838878 (Science (New York, N.Y.), 2022).

Target: recombinant KIT-extracellular domain-Fc fragment fusion protein (KIT-ECD-Fc) (human, UniProt P10721 26-524)
Assay: MST

Sequence of recombinant KIT-extracellular domain-Fc fragment fusion protein (KIT-ECD-Fc) (P10721 26-524): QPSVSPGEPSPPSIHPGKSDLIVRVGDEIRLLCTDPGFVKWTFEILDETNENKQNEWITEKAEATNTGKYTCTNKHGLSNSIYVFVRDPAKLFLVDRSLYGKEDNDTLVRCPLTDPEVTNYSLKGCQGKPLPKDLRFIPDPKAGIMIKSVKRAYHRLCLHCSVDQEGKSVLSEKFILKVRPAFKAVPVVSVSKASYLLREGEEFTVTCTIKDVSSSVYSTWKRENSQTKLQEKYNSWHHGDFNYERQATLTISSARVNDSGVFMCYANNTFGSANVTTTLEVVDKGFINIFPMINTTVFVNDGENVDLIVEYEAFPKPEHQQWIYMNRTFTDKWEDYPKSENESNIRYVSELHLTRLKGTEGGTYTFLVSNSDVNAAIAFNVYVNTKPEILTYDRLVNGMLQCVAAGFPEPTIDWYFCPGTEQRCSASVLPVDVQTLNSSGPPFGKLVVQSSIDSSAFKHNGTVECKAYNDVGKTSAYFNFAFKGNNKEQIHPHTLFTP

binding result: binds
B1: meteorin-like (METRNL), protein added as ligand (ligand, human, UniProt Q641Q3 46-311, looked up)
chain: QYSSDRCSWKGSGLTHEAHRKEVEQVYLRCAAGAVEWMYPTGALIVNLRPNTFSPARHLTVCIRSFTDSSGANIYLEKTGELRLLVPDGDGRPGRVQCFGLEQGGLFVEATPQQDIGRRTTGFQYELVRRHRASDLHELSAPCRPCSDTEVLLAVCTSDFAVRGSIQQVTHEPERQDSAIHLRVSRLYRQKSRVFEPVPEGDGHWQGRVRTLLECGVRPGHGDFLFTGHMHFGEARLGCAPRFKDFQRMYRDAQERGLNPCEVGTD
